Literature values as cited in article PMC5760685.

Molecular target: CRHR1 (UniProt P34998)
UniProt P34998, sequence (P34998 24-415): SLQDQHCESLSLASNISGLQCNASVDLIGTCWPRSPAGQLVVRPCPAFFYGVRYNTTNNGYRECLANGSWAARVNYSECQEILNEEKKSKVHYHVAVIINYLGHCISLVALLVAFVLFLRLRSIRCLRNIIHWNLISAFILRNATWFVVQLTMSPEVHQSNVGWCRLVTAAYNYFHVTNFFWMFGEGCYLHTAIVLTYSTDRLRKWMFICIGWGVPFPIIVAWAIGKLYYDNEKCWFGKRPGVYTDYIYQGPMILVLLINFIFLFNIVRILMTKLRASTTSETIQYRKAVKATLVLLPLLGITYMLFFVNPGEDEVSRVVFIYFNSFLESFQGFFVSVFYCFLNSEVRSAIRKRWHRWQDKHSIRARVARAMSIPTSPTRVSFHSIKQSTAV

For CRH (from UniProt P06850), the Kd is given as 3 nM.
